Results taken from patent US20150093398A1, “Methods and Compositions for Treating or Preventing Cancer” (MERCK SHARP & DOHME CORP., priority 2005, published 2015).

Experiments:
[1] = tested on: SK-N-MC neuroblastoma cells; test: SK-N-MC neuroblastoma xenograft tumor growth in mice (04 IGFR-13, 19D12 vs. Cisplatin); type: in vivo, Athymic nude mice
[2] = tested on: SK-N-FI neuroblastoma cells; test: SK-N-FI neuroblastoma xenograft tumor growth in mice (04 IGFR-20); type: in vivo, Athymic nude mice
[3] = tested on: SK-N-AS neuroblatoma cells; test: SK-N-AS neuroblastoma xenograft tumor growth in mice (03 IGFR-09, 19D12 vs. Cytoxan); type: in vivo, Athymic nude mice
Method: (§1) Athymic nude mice were inoculated with tumor cells in the right flank, subcutaneously, along with Matrigel (1:1 cells:gel). In these experiments, 5×10^6 cells/mouse in a 1:1 mix with regular matrigel were inoculated subcutaneously. Tumor size was measured with calipers and the data was entered into the labcat program. Mice were grouped with average size of 100 mm^3. Tumor size and body weight were measured twice weekly.
(§2) In these experiments, mice were dosed twice per week, intraperitoneally (i.p.) with antibody 19D12 and chemotherapeutic agents at the indicated frequency. Tumor size and mouse body weight was measured twice weekly after treatment.

[4] = tested on: SJCRH30 rhabdomyosarcoma cells; test: SJCRH30 rhabdomyosarcoma xenograft tumor growth in mice (05 IGFR-01, 19D12 and Cytoxan); type: in vivo, Athymic nude mice
Method: as §1, §2

[5] = tested on: SJSA-1 osteosarcoma cells; test: SJSA-1 osteosarcoma xenograft model (05-IGFR-21), dosing from 15 days after inoculation; type: in vivo, female nude mouse (strain NU/NU)
Method: Xenograft tumor size was measured twice per week with a caliper and captured electronically by the LabCat program. […] For the experiments set forth in Table 9, dosing was initiated 15 days after inoculation. […] Xenograft tumor size was measured twice per week with a caliper and captured electronically by the LabCat program.

[6] = tested on: Hs700T malignant pancreatic cells; test: Hs700T pancreatic xenograft tumor growth in mice (04 IGFR-16, 19D12 and Gemzar combination);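 further: subcutaneous flank xenografts in athymic nude mice, treated once tumors averaged 100 mm^3, antibody given intraperitoneally twice weekly, tumor size measured by calipers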
Method: as §1, §2

B1: 19D12: anti-IGF1R antibody: light chain variable region amino acids 20-128 of SEQ ID NO: 8, heavy chain variable region amino acids 20-137 of SEQ ID NO: 10 (antibody, V domains shown)
VL: MSPSQLIGFLLLWVPASRGEIVLTQSPGTLSVSPGERATLSCRASQSIGSSLHWYQQKPGQAPRLLIKYASQSLSGIPDRFSGSGSGTDFTLTISRLEPEDFAVYYCHQSSRLPHTFGQGTKVEIKRT
VH: MEFGLSWVFLVAILKGVQCEVQLVQSGGGLVKPGGSLRLSCAASGFTFSSFAMHWVRQAPGKGLEWISVIDTRGATYYADSVKGRFTISRDNAKNSLYLQMNSLRAEDTAVYYCARLGNFYYGMDVWGQGTTVTVSS
modifications: variable regions only: LC 20-128, HC 20-137; constant regions lack entries
[1]; 0.004 mg 19D12, Day 0
  Tumor Average Size: 89 mm^3
[1]; 0.004 mg 19D12, Day 2
  Tumor Average Size: 120 mm^3
[1]; 0.004 mg 19D12, Day 6
  Tumor Average Size: 146 mm^3
[1]; 0.004 mg 19D12, Day 9
  Tumor Average Size: 177 mm^3
[1]; 0.004 mg 19D12, Day 13
  Tumor Average Size: 212 mm^3
[1]; 0.004 mg 19D12, Day 16
  Tumor Average Size: 235 mm^3
[1]; 0.004 mg 19D12, Day 20
  Tumor Average Size: 292 mm^3
[1]; 0.004 mg 19D12, Day 23
  Tumor Average Size: 331 mm^3
[1]; 0.004 mg 19D12, Day 24
  Tumor Average Size: 331 mm^3
[1]; 0.02 mg 19D12, Day 0
  Tumor Average Size: 97 mm^3
[1]; 0.02 mg 19D12, Day 2
  Tumor Average Size: 122 mm^3
[1]; 0.02 mg 19D12, Day 6
  Tumor Average Size: 151 mm^3
[1]; 0.02 mg 19D12, Day 9
  Tumor Average Size: 189 mm^3
[1]; 0.02 mg 19D12, Day 13
  Tumor Average Size: 222 mm^3
[1]; 0.02 mg 19D12, Day 16
  Tumor Average Size: 248 mm^3
[1]; 0.02 mg 19D12, Day 20
  Tumor Average Size: 292 mm^3
[1]; 0.02 mg 19D12, Day 23
  Tumor Average Size: 344 mm^3
[1]; 0.02 mg 19D12, Day 24
  Tumor Average Size: 344 mm^3
[1]; 0.1 mg 19D12, Day 0
  Tumor Average Size: 89 mm^3
[1]; 0.1 mg 19D12, Day 2
  Tumor Average Size: 115 mm^3
[1]; 0.1 mg 19D12, Day 6
  Tumor Average Size: 144 mm^3
[1]; 0.1 mg 19D12, Day 9
  Tumor Average Size: 193 mm^3
[1]; 0.1 mg 19D12, Day 13
  Tumor Average Size: 226 mm^3
[1]; 0.1 mg 19D12, Day 16
  Tumor Average Size: 245 mm^3
[1]; 0.1 mg 19D12, Day 20
  Tumor Average Size: 282 mm^3
[1]; 0.1 mg 19D12, Day 23
  Tumor Average Size: 335 mm^3
[1]; 0.1 mg 19D12, Day 24
  Tumor Average Size: 335 mm^3
[1]; 0.5 mg 19D12, Day 0
  Tumor Average Size: 83 mm^3
[1]; 0.5 mg 19D12, Day 2
  Tumor Average Size: 107 mm^3
[1]; 0.5 mg 19D12, Day 6
  Tumor Average Size: 133 mm^3
[1]; 0.5 mg 19D12, Day 9
  Tumor Average Size: 173 mm^3
[1]; 0.5 mg 19D12, Day 13
  Tumor Average Size: 210 mm^3
[1]; 0.5 mg 19D12, Day 16
  Tumor Average Size: 234 mm^3
[1]; 0.5 mg 19D12, Day 20
  Tumor Average Size: 264 mm^3
[1]; 0.5 mg 19D12, Day 23
  Tumor Average Size: 317 mm^3
[1]; 0.5 mg 19D12, Day 24
  Tumor Average Size: 317 mm^3
[2]; 0.02 mg 19D12, Day 0
  Tumor Average Size: 150 mm^3
[2]; 0.02 mg 19D12, Day 5
  Tumor Average Size: 181 mm^3
[2]; 0.02 mg 19D12, Day 8
  Tumor Average Size: 204 mm^3
[2]; 0.02 mg 19D12, Day 12
  Tumor Average Size: 207 mm^3
[2]; 0.02 mg 19D12, Day 15
  Tumor Average Size: 217 mm^3
[2]; 0.02 mg 19D12, Day 19
  Tumor Average Size: 237 mm^3
[2]; 0.02 mg 19D12, Day 22
  Tumor Average Size: 290 mm^3
[2]; 0.1 mg 19D12, Day 0
  Tumor Average Size: 151 mm^3
[2]; 0.1 mg 19D12, Day 5
  Tumor Average Size: 164 mm^3
[2]; 0.1 mg 19D12, Day 8
  Tumor Average Size: 146 mm^3
[2]; 0.1 mg 19D12, Day 12
  Tumor Average Size: 154 mm^3
[2]; 0.1 mg 19D12, Day 15
  Tumor Average Size: 141 mm^3
[2]; 0.1 mg 19D12, Day 19
  Tumor Average Size: 154 mm^3
[2]; 0.1 mg 19D12, Day 22
  Tumor Average Size: 170 mm^3
[2]; 1 mg 19D12, Day 0
  Tumor Average Size: 155 mm^3
[2]; 1 mg 19D12, Day 5
  Tumor Average Size: 161 mm^3
[2]; 1 mg 19D12, Day 8
  Tumor Average Size: 128 mm^3
[2]; 1 mg 19D12, Day 12
  Tumor Average Size: 126 mm^3
[2]; 1 mg 19D12, Day 15
  Tumor Average Size: 118 mm^3
[2]; 1 mg 19D12, Day 19
  Tumor Average Size: 117 mm^3
[2]; 1 mg 19D12, Day 22
  Tumor Average Size: 122 mm^3
[3]; 0.004 mg 19D12/IgG1, Day 4
  Tumor Average Size: 335 mm^3
[3]; 0.004 mg 19D12/IgG1, Day 7
  Tumor Average Size: 568 mm^3
[3]; 0.004 mg 19D12/IgG1, Day 11
  Tumor Average Size: 1314 mm^3
[3]; 0.004 mg 19D12/IgG1, Day -1
  Tumor Average Size: 142 mm^3
[3]; 0.02 mg 19D12/IgG1, Day 4
  Tumor Average Size: 231 mm^3
[3]; 0.02 mg 19D12/IgG1, Day 7
  Tumor Average Size: 307 mm^3
[3]; 0.02 mg 19D12/IgG1, Day 11
  Tumor Average Size: 547 mm^3
[3]; 0.02 mg 19D12/IgG1, Day -1
  Tumor Average Size: 137 mm^3
[3]; 0.1 mg 19D12/IgG1, Day 4
  Tumor Average Size: 249 mm^3
[3]; 0.1 mg 19D12/IgG1, Day 7
  Tumor Average Size: 321 mm^3
[3]; 0.1 mg 19D12/IgG1, Day 11
  Tumor Average Size: 615 mm^3
[3]; 0.1 mg 19D12/IgG1, Day -1
  Tumor Average Size: 135 mm^3
[3]; 0.5 mg 19D12/IgG1, Day 4
  Tumor Average Size: 205 mm^3
[3]; 0.5 mg 19D12/IgG1, Day 7
  Tumor Average Size: 273 mm^3
[3]; 0.5 mg 19D12/IgG1, Day 11
  Tumor Average Size: 492 mm^3
[3]; 0.5 mg 19D12/IgG1, Day -1
  Tumor Average Size: 123 mm^3
[4]; 0.02 mg 19D12, Day 0
  Tumor Average Size: 74 mm^3
[4]; 0.02 mg 19D12, Day 4
  Tumor Average Size: 144 mm^3
[4]; 0.02 mg 19D12, Day 7
  Tumor Average Size: 337 mm^3
[4]; 0.02 mg 19D12, Day 11
  Tumor Average Size: 534 mm^3
[4]; 0.02 mg 19D12, Day 14
  Tumor Average Size: 714 mm^3
[4]; 0.02 mg 19D12, Day 18
  Tumor Average Size: 926 mm^3
[4]; 0.1 mg 19D12, Day 0
  Tumor Average Size: 74 mm^3
[4]; 0.1 mg 19D12, Day 4
  Tumor Average Size: 126 mm^3
[4]; 0.1 mg 19D12, Day 7
  Tumor Average Size: 232 mm^3
[4]; 0.1 mg 19D12, Day 11
  Tumor Average Size: 372 mm^3
[4]; 0.1 mg 19D12, Day 14
  Tumor Average Size: 520 mm^3
[4]; 0.1 mg 19D12, Day 18
  Tumor Average Size: 681 mm^3
[4]; 1 mg 19D12, Day 0
  Tumor Average Size: 75 mm^3
[4]; 1 mg 19D12, Day 4
  Tumor Average Size: 103 mm^3
[4]; 1 mg 19D12, Day 7
  Tumor Average Size: 183 mm^3
[4]; 1 mg 19D12, Day 11
  Tumor Average Size: 284 mm^3
[4]; 1 mg 19D12, Day 14
  Tumor Average Size: 442 mm^3
[4]; 1 mg 19D12, Day 18
  Tumor Average Size: 562 mm^3
[5]; 0.04 mg 19D12, Day 0
  Mean Tumor size: 142 mm3
[5]; 0.04 mg 19D12, Day 4
  Mean Tumor size: 153 mm3
[5]; 0.04 mg 19D12, Day 7
  Mean Tumor size: 222 mm3
[5]; 0.04 mg 19D12, Day 11
  Mean Tumor size: 306 mm3
[5]; 0.04 mg 19D12, Day 14
  Mean Tumor size: 431 mm3
[5]; 0.1 mg 19D12, Day 0
  Mean Tumor size: 145 mm3
[5]; 0.1 mg 19D12, Day 4
  Mean Tumor size: 147 mm3
[5]; 0.1 mg 19D12, Day 7
  Mean Tumor size: 151 mm3
[5]; 0.1 mg 19D12, Day 11
  Mean Tumor size: 212 mm3
[5]; 0.1 mg 19D12, Day 14
  Mean Tumor size: 251 mm3
[5]; ip twice a week, 0.04 or 0.1 mg per mouse, with Cytoxan 50 or 100 mpk once a week, summary of Table 9
  regression of tumor volume (in words): anti-IGF1R-dependent regression of tumor volume
[6]; 0.1 mg 19D12, Day 0
  Tumor Average Size: 74 mm^3
[6]; 0.1 mg 19D12, Day 4
  Tumor Average Size: 86 mm^3
[6]; 0.1 mg 19D12, Day 7
  Tumor Average Size: 89 mm^3
[6]; 0.1 mg 19D12, Day 11
  Tumor Average Size: 98 mm^3
[6]; 0.1 mg 19D12, Day 14
  Tumor Average Size: 123 mm^3
[6]; 0.1 mg 19D12, Day 18
  Tumor Average Size: 165 mm^3
[6]; 0.1 mg 19D12, Day 21
  Tumor Average Size: 187 mm^3
[6]; 0.1 mg 19D12, Day 26
  Tumor Average Size: 272 mm^3
[6]; 0.1 mg 19D12, Day 29
  Tumor Average Size: 335 mm^3
[6]; 0.1 mg 19D12, Day 33
  Tumor Average Size: 371 mm^3
[6]; 0.1 mg 19D12, Day 36
  Tumor Average Size: 415 mm^3
[6]; 0.5 mg 19D12, Day 0
  Tumor Average Size: 75 mm^3
[6]; 0.5 mg 19D12, Day 4
  Tumor Average Size: 70 mm^3
[6]; 0.5 mg 19D12, Day 7
  Tumor Average Size: 69 mm^3
[6]; 0.5 mg 19D12, Day 11
  Tumor Average Size: 71 mm^3
[6]; 0.5 mg 19D12, Day 14
  Tumor Average Size: 93 mm^3
[6]; 0.5 mg 19D12, Day 18
  Tumor Average Size: 115 mm^3
[6]; 0.5 mg 19D12, Day 21
  Tumor Average Size: 137 mm^3
[6]; 0.5 mg 19D12, Day 26
  Tumor Average Size: 239 mm^3
[6]; 0.5 mg 19D12, Day 29
  Tumor Average Size: 249 mm^3
[6]; 0.5 mg 19D12, Day 33
  Tumor Average Size: 282 mm^3
[6]; 0.5 mg 19D12, Day 36
  Tumor Average Size: 334 mm^3
[6]; 1 mg 19D12, Day 0
  Tumor Average Size: 77 mm^3
[6]; 1 mg 19D12, Day 4
  Tumor Average Size: 80 mm^3
[6]; 1 mg 19D12, Day 7
  Tumor Average Size: 85 mm^3
[6]; 1 mg 19D12, Day 11
  Tumor Average Size: 81 mm^3
[6]; 1 mg 19D12, Day 14
  Tumor Average Size: 99 mm^3
[6]; 1 mg 19D12, Day 18
  Tumor Average Size: 128 mm^3
[6]; 1 mg 19D12, Day 21
  Tumor Average Size: 152 mm^3
[6]; 1 mg 19D12, Day 26
  Tumor Average Size: 231 mm^3
[6]; 1 mg 19D12, Day 29
  Tumor Average Size: 280 mm^3
[6]; 1 mg 19D12, Day 33
  Tumor Average Size: 312 mm^3
[6]; 1 mg 19D12, Day 36
  Tumor Average Size: 305 mm^3
